# Reference: US9212226B2, “Amino acid sequences directed against CXCR4 and other GPCRs and compounds comprising the same” (Ablynx N.V., priority 2008, dated 2015)
# T1: CXCR3 (Homo sapiens, UniProt P49682)
# T1 sequence (P49682 1-368): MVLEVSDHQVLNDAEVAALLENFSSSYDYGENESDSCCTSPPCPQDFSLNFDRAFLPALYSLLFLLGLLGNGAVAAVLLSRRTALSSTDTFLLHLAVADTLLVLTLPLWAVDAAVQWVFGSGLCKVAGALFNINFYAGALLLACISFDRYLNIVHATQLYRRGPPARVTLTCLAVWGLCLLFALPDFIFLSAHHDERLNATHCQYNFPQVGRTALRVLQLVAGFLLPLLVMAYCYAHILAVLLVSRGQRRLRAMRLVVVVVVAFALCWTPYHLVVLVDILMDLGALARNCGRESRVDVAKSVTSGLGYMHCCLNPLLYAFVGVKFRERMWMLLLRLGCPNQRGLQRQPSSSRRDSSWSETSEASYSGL
# How the values were obtained:
# CXCR4 = CXCR4 (Homo sapiens, UniProt P61073); assay: Phage ELISA binding assay on CHO-CXCR4 versus CHO membranes; parameters: expressed in transfected cells; host or cells: CHO cells (membrane preparation); conditions: monoclonal phages, CHO-CXCR4 vs CHO membranes
# CXCR4, sequence (P61073 with tags, fused parts or gaps isoform P61073-2 limits assumed): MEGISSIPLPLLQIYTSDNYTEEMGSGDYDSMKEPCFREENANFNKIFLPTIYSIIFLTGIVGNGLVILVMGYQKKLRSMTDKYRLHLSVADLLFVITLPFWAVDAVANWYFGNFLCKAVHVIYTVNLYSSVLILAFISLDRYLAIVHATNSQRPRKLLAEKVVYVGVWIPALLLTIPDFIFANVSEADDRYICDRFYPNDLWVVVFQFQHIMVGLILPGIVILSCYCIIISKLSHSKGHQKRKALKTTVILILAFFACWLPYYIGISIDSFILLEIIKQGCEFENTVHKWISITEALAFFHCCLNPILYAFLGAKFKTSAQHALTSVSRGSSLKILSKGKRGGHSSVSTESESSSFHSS
# Experimental: FIG. 2. Results from Phage ELISA (as described in example 1.5).
# In order to determine binding specificity of the Nanobodies, 15 ul of the produced phage were tested in an Phage ELISA binding assay.
# In short, 2 ug in 100 ul PBS of membrane expressing either CXCR4 (CHO-CXCR4) or a non relevant GPCR(CHO) were coated directly on Maxisorp microtiter plates (Nunc) overnight at 4 C. Free binding sites were blocked using 4% Marvel in PBS for 1 h. Next, 15 ul of monoclonal phages was added in 100 ul 1% Marvel PBS for 2 hours. […] Binding specificity (binding to CHO-CXCR4) was determined based on OD values compared to controls (binding to CHO).
# CXCR3 = molecular target: T1, CXCR3; assay: Binding of [125I]-238D2 / [125I]-238D4 to membranes from HEK293T cells expressing CXCR4 or CXCR3; conditions: radiolabelled Nanobody
specificity toward CXCR4 expressing membrane compared to non-expressing membrane (CXCR4),binding to CXCR4 membranes compared to CXCR3 membranes (CXCR3),Molecule
high specificity,,"238F3: Nanobody (VHH) raised against human CXCR4, SEQ ID NO: 247 (protein, Nanobody, Nanobody constructs or fragments thereof) VHH: EVQLVESGGGLAQAGGSLRLSCAASGRTYAMGWFRQAPGKEREFVTTSRLITDNIIYADSVKGRFTLTRDNGKNTVYLQMDSLKPDDTAVYFCAARQNYSRSVFGAKDYDYWGQGTQVTVSS"
,selectively bind,[^125I]-238D4: 125I-labeled Nanobody 238D4 used as radioligand (protein) VHH: EVQLMESGGGLVQAGGSLRLSCAASGRTFNNYAMGWFRRAPGKEREFVAAITRSGVRSGVSAIYGDSVKDRFTISRDNAKNTLYLQMNSLKPEDTAVYTCAASAIGSGALRRFEYDYSGQGTQVTVSS
,selectively bind,[^125I]-238D2: 125I-labeled Nanobody 238D2 used as radioligand (protein) VHH: EVQLVESGGGLVQTGGSLRLSCAASGFTFSSYAMSWVRQAPGKGLEWVSGIKSSGDSTRYAGSVKGRFTISRDNAKNMLYLQMYSLKPEDTAVYYCAKSRVSRTGLYTYDNRGQGTQVTVSS
